In a protein production outcome set (Wang et al. 2014):

Test: label from the status in PepcDB records

Sequence | protein production
MSYSVMFALLLLTPLLFSLLCFACRKRRLSATRTVTVLHSLGITLLLILALWVVQTAADAGEIFAAGLWLHIDGLGGLFLAILGVIGFLTGIYSIGYMRHEVAHGELSPVTLCDYYGFFHLFLFTMLLVVTSNNLIVMWAAIEATTLSSAFLVGIYGQRSSLEAAWKYIIICTVGVAFGLFGTVLVYANAASVMPQAEMAIFWSEVLKQSSLLDPTLMLLAFVFLLIGFGTKTGLFPMHAWLPDAHSEAPSPVSALLSAVLLNCALLVLIRYYIIICQAIGSDFPNRLLLIFGMLSVAVAAFFILVQRDIKRLLAYSSVENMGLVAVELGIGGPLGIFAALLHILNHSLAKTLLFCGSGNVLLKYGTRDLNVVCGMLKIMPFTAVLFGGGALALAGMPPFNIFLSEFMTITAGLARNHLLIIVLLLLLLTLVLAGLVRMAARVLMAKPPQAVNRGDLGWLTTSPMVILLVMMLAMGTHIPQPVIRILAGASTIVLSGTHDLPAQRSTWHDFLPSGTASVSEKHSER | failed
MRAMRLVEIGKPLKLEDIPIPKPKGSQVLIKIEAAGVCHSDVHMRQGRFGNLRIVEDLGVKLPVTLGHEIAGRIEEVGDEVVGYSKGDLVAVNPWEGEGNCYYCRIGEEHLCDSPRWLGINYDGAYAEYVLVPHYKYLYKLRRLSAVEAAPLTCSGVTTYRAVRKASLDPSKTLVVIGAGGGLGTMAIQIAKAVSGATIIGVDVREEALEAAKRAGADYVINASSQDPVSEIRRITQGKGADAVIDLNNSEKTLSIYPYVLAKQGKYVMVGLFGADLKYHAPLITLNEVQFIGSLVGNQSDFLGIMSLAEAGKVKPMVTKTMKLEEANEAIDNLENFKAVGRQVLVP | not failed
MDIKRYCPVTDSELPADHVYFKFRSEIEAAEAYLGLAISEGIKVRETREILDIIDTVYNSLSDPESKLNDFQEKRLNFTEEDWYDIKEKANNGNRWSLYMFLARSAVDSAVYWSYRMKETEEFKEIVKEEMISKLLKAGYVILRESLGEVRL | not failed
MAFRKPDEIAEAAIEAGMKKIKLPLPSLLVLGFLGGAFIALGYLLDIRVIGDLPKEWGSLSSLIGAAVFPVGLILVVLAGAELITGNMMSVAMALFSRKISVKELAINWGIVTIMNLIGALFVAYFFGHLVGLTETGPYLEKTIAVAQGKLDMSFGKVLISAIGCNWLVCLAVWLSFGAQDAAGKILGIWFPIMAFVAIGFQHVVANMFVIPAAIFAGSFTWGQFIGNIIPAFIGNVIGGAVFVGLIYFIAYHKKDRSRKEMKQVS | failed
MAHHHHHHSLDAAAATLPRKSGSVDRLVRLAEADMAGVNRLITDRMQSDVAIIPALAEHLIAAGGKRLRPLMTVAAARLAGADNDHFQKLAAAVEFIHTATLLHDDVVDGSQLRRGKVAAHLIWGGAQSVLVGDFLFARAFELMVETNSMKALEILARASRVIAEGEVLQLMRSHDLNLSQAVYLEIIQAKTAELFAAASEAGAVSAGVDVAKSEALRDYGLNLGLAFQLADDALDYGGATETLGKNAGDDFREGKATLPLLLAIARSGPREAEFWERAIGRREQTEADFRRARELIIGSGALDATLDLAADYADKAKAALAMFPANDWREALEELADFAVSRRA | not failed
MTVQSGELRPNLIALKTIVYREVHRFMRIWPQTLLPPAITMVLYFVIFGNLIGRQIGDMGSFTYMQYIVPGLIMMSVITNSYGNVVSSFFGAKFQHSIEELMVSPVSPHTILIGYTLGGVLRGLMVGFIVTMLSMFFTDLQVHHLGVTIVVVVLTATIFSLLGFINAVFARNFDDISIIPTFVLTPLTYLGGVFYSINLLPPFWQTVSLANPVLHMVNAFRYGILGVSDIKISIALAFMIVATFVLYFGCARLLVSGRGMRQ | failed
MMKTLSPLKASLFAILASSTVLVTTVSAEPSQECDHPRSEFHKRGDRMGHDGMHKMFEGLELTDTQKADIKKLFAEQRAARSDDKPTKEERLARRAEMHALITAATFDETQAKALIGAQQEKRQAQAIERMKMQNQIYNLLTPEQQAKFKARFEAHTGKEPRSLEHHHHHH | failed
MSMLKPSGLKAPTKILKPGSTALKTPTAVVAPVEKTISSEKASSTPSSETQEEFVDDFRVGERVWVNGNKPGFIQFLGETQFAPGQWAGIVLDEPIGKNDGSVAGVRYFQCEPLKGIFTRPSKLTRKV | not failed
MSLEIIKTGLAAFGMSGQVFHAPFISTNPHFELYKIVERSKELSKERYPQASIVRSFKELTEDPEIDLIVVNTPDNTHYEYAGMALEAGKNVVVEKPFTSTTKQGEELIALAKKKGLMLSVYQNRRWDADFLTVRDILAKSLLGRLVEYESTFARYRNFIKPNTWKETGESGGGLTYNLGSHLIDQAIQLFGMPEAVFADLGILREGGKVDDYFIIHLLHPSLAPNVKITLKASYLMREAEPRFALHGTLGSYVKYGVDKQEAALLAGEIPERPNWGEESEQEWGLLHTEINGKEICRKYPGIAGNYGGFYQNIYEHLCLGQPLETHAQDILNVIRIIEAAYQSHRENKIVNLKEGHHHHHH | not failed
MRLPRQIRLPHLRDIGALLTDSAREWSRHRASSKGAALSLYMVFSLAPMLILVIAVAGAFFGEEAVRSELFSQVRDLTGERGAEVIQTVLASAHESGSGWLAALLSICVLVFSATTAFAELKASLDELWDVKEDKSGLQGLVRSRMLSFGLVLVLALFLLLSLTLNAALGAAKGYYGDLWSTSAFAMAADWLSNLFSFAVVTALFAVVYKLLPSKRIPWLDVIPGAIVTAALFLAGKWGIGLYLERGTAVSAYGAAGSLIALLLWIYYSAQIFFFGAVFTRQFAERFGNLRRAAPA | not failed
MNMNHYRPVILADQRVVSDFELDPLTRKISIKILQGHEQGNKGMVDTLRQNLQQRLGVPVEIPLALMNHLVKLVRDGNEVITATLAAGNDINEDGKAASYQVIDAEPGDHTGVQVGLAIDIGTTTVVVYLVNMVNGDIIAKASDYNGQIKLGDDILSRIMAAREEKGLQELQALIVNTLNALIQQLCLEAELKPQAITGVCIGANTTMVHLCLGLDPGSICRAPYRPAVNNAGIFCAGEIGLAVHPLAPTYCLPSIGSYIGGDVLAGILVSGMHKQEEVALLADIGTNGEFILGNQEWLVGCAGAAGPALEGGVTEWGIRAEQGAVDQVSIDSEHHVGYTTIDNAPARGICGSGLIDSLAELFLNGLINRAARFTDGRERFTIVPADESATGKEIFISQKDINSLMRTKGAVNAALEVLMESVGCQWEEIAKFYAAGAFGQYLPIESAVTIGLYPDLPREQMLRLGNSSGEGARQVLLSNSKRQEIEEIAGKITYFEMNASSSFMDKYGGSRFLPHTNMDLFPSVQEKLAVRQRSRC | failed
MTTIAVLGNGRVGGNLATALTRAGHEVTVADRTPGAAADTARTAQIVINATPGAGSLDRLAALRDELRDKILVDVSNATNDGPDGLPADLIYPGSSLAEHLQEALPETRVVKTLNTMLFPVMTAPATLTQTPTAFLSGEDPQAKQTVRELLTDLGWHKEWIADLGGIQTARATEAAILFVPHVIGATGFTPFAISIARLEHHHHHH | not failed
MSYIRLVTWNVDFDSPFNYERFTAIAEEVLGAKPGVVLFQEVSDLPFSSWQGEKEQSTITSARQHDSCYKVLLRRLEALYEPIVDLGLPSEQAYFVMAFVDRSKYRVHGYEYTEFENSSQGRGLLAIQLEPRDMCGDFKFRVLTSHLESGTACSEVRVQQMRQIAYEMLEGDTPAIFAGDTNFREKEKAGFEKEIAKAIGSEEMRLFDLFVEVGEPSHLRFTWDTRTNTNKVKELPPRFRPRARFDQVLFTRPFQANAMRLLGRERLGHAVFPSDHYGIYGELRF | failed
MTRTLTTPLPTAPRAKPARRPTTLLFAYGATLNPEHIMVRLCQPKIRAIARLPDYRLGFHGHSEVWDSGLETLVDEPGAEAWGVLYELSATELDRFDAWQGVKLDGGGSYFHYPVEVIDENGQLLDALFHRKTEMGPQQPASRDYLDFILAGARARGLPARAIAVLEACTAVQARYPVPKMNTDIKALASKLSCAC | failed
MLPGLKYIDRIGVDDVLVWLRKGIVWIVLAIVLCVGGALTYASMTPPRYKAYTDIVVNPSNLNVVNDGVFSPNQQRDTQILEVESKLRTITSRNVLARVVDELKLDQDPEFVSPPPLARLKAMFSSKPDDGDNRVGALRSLGDRVTAERDPRSFVVTLSVWTNDAEKSVAVSKAIVKAFESELFQTNSDSSQRVVDDLKKRLEEMRENVTIAEKRVADFRRENGLQENNGQLVSNLASGELNAQVLATQQRLIQEESRLKQMEAAIAQNRTQSDAIFDSQTMNTIRAQYSTLQQQIGAMTLTYGARHPRLATAGAERAMLERGMADEARRILQAAKINVAEARSSLDALRLKAVAERANVFTDNDAQVRLRDLDRDARSAAAIYETYLTRSRQLAEQQSIDSTNVRVISQPVAPNSRSWPPGKLTFLIAGGMGGLFLGLAIAVALGLWGYLRRDDHAEAAARYA | failed
GIHMGKIKRRAITEHEKRALRHYFFQLQNRSGQQDLIEWFREKFGKDISQPSVSQILSSKYSYLDNTVEKPWDVKRNRPPKYPLLEAALFEWQVQQGDDATLSGETIKRAAAILWHKIPEYQDQPVPNFSNGWLEGFRKRHILH | not failed
MVDINRRGALGSLLAGAGLAALPASAEAAQMGLLPAKPTSGPTWTTGIEGQRKADLGDGTFLNPILTGDRPDPSILKDGADYYMTHSSFDAYPGLLIWHSRDLVNWTPVTTTLKTNVGSIWAPELCKHKGRYYIYLPAKFPGNNTSYVIWADKIEGPWSEPIDLKLPRYIDPGHIVDEAGERWLFLSGGDRIKLAPDGLSTVGKPEHVYDPWRYPDDWDVEGFSPEGPKLMRRGEYFYMITAVGGTAGPPTGHMVIAARAKSLAGPWENHPRNPLVRTTDNAEKWWSRGHATLVEGPTPGDWWTVYHGYENGYYTLGRQTLLAPVTWTADGWFDIGGGDLSQPIKKPKGGKPGPHGMALSDDFSTDKYGVQWNFFDPKPGEQDRIKREGGVLTLKGAGEAPSTGSPLIFVNGDQAYEIECEIEIEPETRAGLILFYDRQLYCGLGFDAKNFVTHQYGIERGRPANPHGAKMLMRLRNNRHIVSFHTSGDGGKTWKRFDRGMEVSGYHHNVRGGFLMLKPGIYAAGKGSARFRGFKYRALP | failed
PDHGKAEWFRGADGATLRAATFFPAGPARGSVVLSPGRSEPLEKYFEVVDDLLARDFAVLLHDWRGQGLSARALPDRLKGHARGFKTFVSDYEALLDAFETRMPKPWIAVSHSMGGCLTTLALAQGETRFAAAVLSAPMLGLNTAGVPPWLARPLAFVMSRVGLAGEYVQTPYDPLTQTFQGDGLTHDETRYDRYQAQLRAHPEIALGGMTWGWADFAISACAWLRRSKSVEAIAIPVIILGAELDNRVLNADSESIARRIPKGRYVEVPGAFHEILVETDARRALFWQAFDE | failed
